Measurements: patent US20210061875A1

Legend:
[1] = molecular target: myelin oligodendrocyte glycoprotein 35-55 peptide (MOG35-55) in the context of I-A(b) (mouse; murine) (UniProt P14434)
[2] = molecular target: ovalbumin 323-329 peptide (OVA323-339) in the context of I-A(b) (murine) (UniProt P01012)
[3] = molecular target: myelin oligodendrocyte glycoprotein 35-55 peptide (MOG35-55) in the context of I-A(b) (mouse; murine) (UniProt P14434); remark: listed apart in the source
[4] = molecular target: ovalbumin 323-329 peptide (OVA323-339) in the context of I-A(b) (murine) (UniProt P01012); remark: listed apart in the source

Substance	Cytotoxicity (specific lysis of peptide-pulsed splenocytes, in vitro, 3 days) [1]	Cytotoxicity (specific lysis of peptide-pulsed splenocytes, in vitro, 3 days) [2]	Ratio of MOG/OVA pulsed APC (in vivo cytotoxicity, spleen after 48 hours) (ratio of MOG/OVA pulsed APC) [3]	Ratio of MOG/OVA pulsed APC (in vivo cytotoxicity, spleen after 48 hours) (ratio of MOG/OVA pulsed APC) [4]
2D2 TCR	17%	3%	0.7	
OT-II TCR	4%	32%		6.2
